Measured values taken from patent publication US20190284246A1.

Columns and labels:
[1] = biological target: ΔN28-CofB (enterotoxigenic Escherichia coli (ETEC)); assay: ITC, peptide titrated into ΔN28-CofB
[2] = biological target: ΔN28-CofB (enterotoxigenic Escherichia coli (ETEC)); assay: ITC
[3] = biological target: ΔN28-CofB (enterotoxigenic Escherichia coli (ETEC)); assay: ITC, CofJ titrated into ΔN28-CofB, 25° C.

Substance	Kd [1]	fold stronger binding affinity than CofJ to ΔN28-CofB [2]	Kd [3]
CofJ^4-16 peptide	4000 nM		
CofJ^1-24-GCN4 inhibitory peptide (designed binder)	40 nM	5 fold	
CofJ^1-24 peptide	4000 nM		
secretory protein CofJ			200 nM
CofJ^4-16-GCN4 inhibitory peptide (designed binder)	80 nM	2.5 fold	
